In the supplement of paper PMC12667976:
± gives the standard error.

B1: library; numbered along this chain (parent)
chain: MATDAALRRLLRLHRTEIAVAVDSAFPLLHALADHDVVPEDKFQETLHLKEKEGCPQAFHALLSWLLTQDSTAILDFWRVLFKDYNLERYGRLQPILDSFPKDVDLSQPRKGRKPPAVPKALVPPPRLPTKRKASEEARAAAPAALTPRGTASPGSQLKAKPPKKPESSAEQQRLPLGNGIQTMSASVQRAVAMSSGDVPGARGAVEGILIQQVFESGGSKKCIQVGGEFYTPSKFEDSGSGKNKARSSSGPKPLVRAKGAQGAAPGGGEARLGQQGSVPAPLALPSDPQLHQKNEDECAVCRDGGELICCDGCPRAFHLACLSPPLREIPSGTWRCSSCLQATVQEVQPRAEEPRPQEPPVETPLPPGLRSAGEEVRGPPGEPLAGMDTTLVYKHLPAPPSAAPLPGLDSSALHPLLCVGPEGQQNLAPGARCGVCGDGTDVLRCTHCAAAFHWRCHFPAGTSRPGTGLRCRSCSGDVTPAPVEGVLAPSPARLAPGPAKDDTASHEPALHRDDLESLLSEHTFDGILQWAIQSMARPAAPFPS

Variants of: B1
Assay: AIRE transcriptional activation functional score (insulin promoter-GFP; nonsense median 0, synonymous median 1) (normalised score); higher = higher AIRE activity (more reporter activation)
Settings: with insulin promoter-GFP reporter in HEK293
How it was run: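 Codon-optimized AIRE NNN-codon libraries (three regions) were integrated by Bxb1 recombinase into Flp-In T-REx HEK293 landing-pad cells carrying an insulin core promoter-GFP reporter. Integrants (mCherry+, BFP−) sorted at day 7 were expanded 7 days; top 10% GFP and unselected integrant populations were tile-sequenced. Functional score is select versus non-select variant enrichment, wild-type subtracted. Variants needed 10 counts per million in non-select; scores were rescaled to nonsense median 0 and synonymous median 1, then averaged over biological replicates.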

AIRE transcriptional activation functional score: each site, then its substitutions
V487: I 1.06 ± 0.14; Q 0.492 ± 0.13; F 0.765 ± 0.31; K 0.821 ± 0.28; E -0.349 ± 0.43; G 0.931 ± 0.44; M 0.568 ± 0.19; C 0.67 ± 0.29; W 0.552 ± 0.24; A 1.02 ± 0.19; L 1.03 ± 0.18; Y 1.13 ± 0.23; H 0.858 ± 0.48; P 1.04 ± 0.099; N 0.296 ± 0.28; T 1.5 ± 0.077; R 0.785 ± 0.2; S 0.901 ± 0.14
D478: A 0.808 ± 0.31; W 0.544 ± 0.033; I 1.06 ± 0.083; S 0.816 ± 0.23; Y 0.902 ± 0.085; T 0.678 ± 0.31; F 0.799 ± 0.11; P 0.801 ± 0.34; N 0.709 ± 0.056; K 0.926 ± 0.088; E 1.09 ± 0.098; L 0.949 ± 0.13; V 0.89 ± 0.17; H 0.829 ± 0.047; C 0.947 ± 0.032; M 0.485 ± 0.043; Q 0.891 ± 0.1; G 0.841 ± 0.13; R 0.412 ± 0.24
A482: N 1.2 ± 0.25; V 1.23 ± 0.32; S 1.34 ± 0.11; D 1.42 ± 0.057; E 1.28 ± 0.092; Y 1.42 ± 0.1; I 1.32 ± 0.4; K 1.11 ± 0.17; P 1.92 ± 0.39; F -0.132 ± 0.24; L 1.44 ± 0.068; G 1.31 ± 0.59; Q 0.773 ± 0.13; T 0.312 ± 0.16; R 0.557 ± 0.26
E485: G 1.05 ± 0.11; N 0.645 ± 0.4; Q 0.397 ± 0.44; K 0.777 ± 0.1; R 0.652 ± 0.17; D 0.981 ± 0.16; W 1.08 ± 0.049; C 1.24 ± 0.047; L 1.11 ± 0.13; P 1.25 ± 0.21; M -0.286 ± 0.13; T 1.02 ± 0.18; I 1.1 ± 0.23; Y 0.948 ± 0.18; A 0.466 ± 0.38; S 0.955 ± 0.21; H 0.537 ± 0.11; V 0.951 ± 0.26; F 1.1 ± 0.035
S476: D 0.455 ± 0.12; T 1.2 ± 0.2; L 0.829 ± 0.29; E 0.948 ± 0.19; F 1.21 ± 0.13; H 0.529 ± 0.051; A 0.905 ± 0.28; C 0.608 ± 0.23; I 1.23 ± 0.15; W 1.09 ± 0.037; V 0.878 ± 0.21; P 1.02 ± 0.29; Y 1.19 ± 0.18; G 0.844 ± 0.26; Q 0.151 ± 0.11; R 0.828 ± 0.26; M 0.943 ± 0.047; K 0.603 ± 0.21
R471: K 0.921 ± 0.077; I 1.05 ± 0.38; W 1.12 ± 0.1; M 1.36 ± 0.14; Q 0.5 ± 0.21; S 0.674 ± 0.38; Y 1.13 ± 0.23; T 0.747 ± 0.38; V 0.217 ± 0.32; L 0.799 ± 0.34; P 0.89 ± 0.25
V484: R 0.893 ± 0.069; C 0.29 ± 0.025; E 0.615 ± 0.12; T 1.04 ± 0.26; G 1.18 ± 0.29; F 0.8 ± 0.35; Q 1.72 ± 0.046; D 0.164 ± 0.18; W 1.18 ± 0.11; Y 0.975 ± 0.11; A 0.726 ± 0.16; L 0.509 ± 0.47; I 1.45 ± 0.18; S 0.906 ± 0.29
G477: I 1.01 ± 0.33; D 0.678 ± 0.17; Y 0.642 ± 0.12; S 0.661 ± 0.27; M 1.01 ± 0.059; W 0.745 ± 0.15; R 0.787 ± 0.29; Q 0.0223 ± 0.072; P 1.46 ± 0.14; V 1.13 ± 0.3; T -0.261 ± 0.17; N 1.12 ± 0.16; L 0.273 ± 0.39; H 1.41 ± 0.098; C 0.926 ± 0.17; A 0.739 ± 0.25; F 1.36 ± 0.11; E 0.302 ± 0.23; K 1.11 ± 0.11
L488: R 0.722 ± 0.19; G 1.03 ± 0.27; F 1.13 ± 0.078; K 1.07 ± 0.24; E 0.182 ± 0.21; S 0.854 ± 0.22; H 0.298 ± 0.17; C 0.742 ± 0.29; M 0.976 ± 0.11; I 0.826 ± 0.27; V 1.09 ± 0.29; Q 0.827 ± 0.24; N 0.961 ± 0.29; W 1.32 ± 0.047; T 1.18 ± 0.22; D 0.449 ± 0.34; P 1.04 ± 0.17; A 1.27 ± 0.25; Y 1.31 ± 0.13
C472: Q -0.424 ± 0.073; V 0.0438 ± 0.1; I 0.154 ± 0.19; P -0.298 ± 0.19; T -0.165 ± 0.16; W -0.112 ± 0.06; S -0.0588 ± 0.17; L -0.0415 ± 0.19; F 0.226 ± 0.17; R 0.0742 ± 0.14; G 0.0511 ± 0.1; D -0.251 ± 0.19; M -0.0949 ± 0.19; N 0.0317 ± 0.94; A -0.164 ± 0.22; E 0.216 ± 0.091; H -0.28 ± 0.12; K 0.158 ± 0.12; Y 0.117 ± 0.072
P481: A 0.586 ± 0.34; H 1.14 ± 0.073; C 0.688 ± 0.32; G 0.747 ± 0.45; F 1.16 ± 0.26; I 0.238 ± 0.19; N 0.00715 ± 0.27; W 1.39 ± 0.17; T 0.704 ± 0.14; L 0.8 ± 0.19; E 0.44 ± 0.17; R 0.956 ± 0.17; V 1.38 ± 0.086; Y 1.37 ± 0.058; K 1.02 ± 0.054; S 0.91 ± 0.43; D 1.21 ± 0.15; M 1.29 ± 0.04; Q 0.501 ± 0.69
T480: H 1.18 ± 0.072; P 1.05 ± 0.32; A 0.564 ± 0.23; W 1.13 ± 0.096; N 0.784 ± 0.37; F 1.32 ± 0.13; I 0.515 ± 0.16; G 1.11 ± 0.26; R 0.837 ± 0.35; Y 0.806 ± 0.041; D 0.65 ± 0.2; K 0.954 ± 0.12; S 0.786 ± 0.59; L 1 ± 0.23; V 1.45 ± 0.081; Q 0.203 ± 0.14; C 1.12 ± 0.052
G486: I 1.37 ± 0.12; A 0.707 ± 0.48; R 0.926 ± 0.16; T 0.154 ± 0.23; L 1.03 ± 0.4; C 0.625 ± 0.26; P 1 ± 0.4; D 0.692 ± 0.16; K 0.91 ± 0.17; S 1.16 ± 0.21; F 1.46 ± 0.11; N 0.995 ± 0.084; Y 0.737 ± 0.24; H 1.27 ± 0.27; V 1.45 ± 0.5; E 0.566 ± 0.18; W 1.49 ± 0.017; Q 0.85 ± 0.15
S474: R 0.817 ± 0.32; T 0.317 ± 0.15; L 0.185 ± 0.081; Y 0.736 ± 0.19; K 0.466 ± 0.19; F 1.12 ± 0.067; G 0.801 ± 0.26; V 0.167 ± 0.17; N 0.296 ± 0.24; M 0.192 ± 0.059; Q 1.02 ± 0.055; I 0.0981 ± 0.21; A 0.936 ± 0.28; E 1.16 ± 0.11; C 0.824 ± 0.33; D 1.33 ± 0.69; H 0.593 ± 0.069; P 1.17 ± 0.28
P490: A 0.812 ± 0.14
P483: Q 0.926 ± 0.086; M 1.36 ± 0.045; K 0.675 ± 0.19; S 0.811 ± 0.27; N 0.937 ± 0.11; L 0.603 ± 0.34; H 1.13 ± 0.088; I 1.6 ± 0.16; C 1.44 ± 0.08; F 1.33 ± 0.075; R 1.03 ± 0.24; V 1.03 ± 0.074; T 1.46 ± 0.12; A 0.722 ± 0.33; G 1.89 ± 0.095
V479: G 0.838 ± 0.33; F 0.98 ± 0.093; S 0.925 ± 0.28; H 1.16 ± 0.12; L 0.811 ± 0.29; C 1.15 ± 0.25; T 0.956 ± 0.13; Q 1.24 ± 0.31; D 0.363 ± 0.13; E 1.39 ± 0.038; M 1.1 ± 0.13; R 0.978 ± 0.11; K 0.833 ± 0.14; I 0.977 ± 0.18; P 0.967 ± 0.091; N 1.08 ± 0.13; A 0.734 ± 0.36; Y 0.896 ± 0.28; W 1.09 ± 0.053
A489: F 1.16 ± 0.26; T 1.44 ± 0.15; Y 1.22 ± 0.2; S 0.687 ± 0.46; L 1.06 ± 0.14; M 1.23 ± 0.08; K 0.705 ± 0.14; V 0.959 ± 0.15; Q 0.0401 ± 0.2; R 0.51 ± 0.42; E 0.655 ± 0.041; D 1.17 ± 0.2; G 0.932 ± 0.37; C 1.19 ± 0.1; W 0.893 ± 0.068; I 0.859 ± 0.35; P 1.01 ± 0.25; H 1.18 ± 0.099
R473: I 0.852 ± 0.71; Q 0.968 ± 0.13; K 0.66 ± 0.16; V 0.334 ± 0.23; T 1.06 ± 0.22; F 0.997 ± 0.18; N 0.99 ± 0.077; G 0.848 ± 0.2; P 0.607 ± 0.32; S 0.755 ± 0.1; Y 1.64 ± 0.16; D 0.836 ± 0.06; W 0.97 ± 0.13; H -0.49 ± 0.25; E 1.16 ± 0.2; M 0.947 ± 0.08; A 0.794 ± 0.38; L 1.29 ± 0.21; C 0.937 ± 0.055
C475: R -0.148 ± 0.29; Q 0.568 ± 0.1; H 0.16 ± 0.15; E -0.103 ± 0.23; N 0.255 ± 0.099; Y 0.0941 ± 0.16; F 0.14 ± 0.18; P -0.156 ± 0.23; L 0.0763 ± 0.17; A 0.119 ± 0.18; S 0.0047 ± 0.16; D -0.0916 ± 0.039; W -0.0091 ± 0.044; M -0.469 ± 0.15; K -0.353 ± 0.079; V 0.0724 ± 0.17; G 0.304 ± 0.28; T 0.102 ± 0.073; I 0.147 ± 0.15
